Drawing on patent publication US10421803 (dated 2019), this text covers Kd for 1 molecule.

This assay addresses HIV-1 YU2 gp120 (HIV-1, UniProt P35961). Kind of assay: SPR, bivalent.

Chain of HIV-1 YU2 gp120 (P35961 32-671): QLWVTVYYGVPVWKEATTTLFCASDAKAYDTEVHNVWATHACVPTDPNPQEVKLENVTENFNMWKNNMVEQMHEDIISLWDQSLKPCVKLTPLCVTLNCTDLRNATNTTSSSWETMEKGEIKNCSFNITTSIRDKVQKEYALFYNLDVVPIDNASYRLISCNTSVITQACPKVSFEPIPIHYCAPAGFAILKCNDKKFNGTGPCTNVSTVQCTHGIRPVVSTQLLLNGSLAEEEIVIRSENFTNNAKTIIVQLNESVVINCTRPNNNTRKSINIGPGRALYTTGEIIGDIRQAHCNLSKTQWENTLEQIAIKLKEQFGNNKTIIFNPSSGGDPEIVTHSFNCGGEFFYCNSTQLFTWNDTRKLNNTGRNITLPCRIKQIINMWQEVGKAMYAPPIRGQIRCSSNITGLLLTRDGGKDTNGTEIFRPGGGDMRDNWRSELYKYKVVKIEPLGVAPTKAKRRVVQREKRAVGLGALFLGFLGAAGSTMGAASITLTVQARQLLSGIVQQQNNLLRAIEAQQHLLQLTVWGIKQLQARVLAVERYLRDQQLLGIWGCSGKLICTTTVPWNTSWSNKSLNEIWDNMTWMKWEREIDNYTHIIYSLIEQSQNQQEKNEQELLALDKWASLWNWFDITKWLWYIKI

B1: 8ANC195 IgG (antibody, V domains shown)
VH: QIHLVQSGTEVKKPGSSVTVSCKAYGVNTFGLYAVNWVRQAPGQSLEYIGQIWRWKSSASHHFRGRVLISAVDLTGSSPPISSLEIKNLTSDDTAVYFCTTTSTYDKWSGLHHDGVMAFSSWGQGTLISVSA
VL: DIQMTQSPSTLSASIGDTVRISCRASQSITGNWVAWYQQRPGKAPRLLIYRGAALLGGVPSRFSGSAAGTDFTLTIGNLQAEDFGTFYCQQYDTYPGTFGQGTKVEV
In the case of B1, the Kd worked out at 82 nM.
